Substrate in the data set: CC(=O)C(=O)O
Nature of the data set: purified protein. The note with it: pH 8.0; 25.0 °C.

B1: MtPC (Mycobacterium tuberculosis pyruvate carboxylase) (Mycobacterium tuberculosis H37Rv) (protein)
chain: MFSKVLVANRGEIAIRAFRAAYELGVGTVAVYPYEDRNSQHRLKADESYQIGDIGHPVHAYLSVDEIVATARRAGADAIYPGYGFLSENPDLAAACAAAGISFVGPSAEVLELAGNKSRAIAAAREAGLPVLMSSAPSASVDELLSVAAGMPFPLFVKAVAGGGGRGMRRVGDIAALPEAIEAASREAESAFGDPTVYLEQAVINPRHIEVQILADNLGDVIHLYERDCSVQRRHQKVIELAPAPHLDAELRYKMCVDAVAFARHIGYSCAGTVEFLLDERGEYVFIEMNPRVQVEHTVTEEITDVDLVASQLRIAAGETLEQLGLRQEDIAPHGAALQCRITTEDPANGFRPDTGRISALRTAGGAGVRLDGSTNLGAEISPYFDSMLVKLTCRGRDLPTAVSRARRAIAEFRIRGVSTNIPFLQAVLDDPDFRAGRVTTSFIDERPQLLTARASADRGTKILNFLADVTVNNPYGSRPSTIYPDDKLPDLDLRAAPPAGSKQRLVKLGPEGFARWLRESAAVGVTDTTFRDAHQSLLATRVRTSGLSRVAPYLARTMPQLLSVECWGGATYDVALRFLKEDPWERLATLRAAMPNICLQMLLRGRNTVGYTPYPEIVTSAFVQEATATGIDIFRIFDALNNIESMRPAIDAVRETGSAIAEVAMCYTGDLTDPGEQLYTLDYYLKLAEQIVDAGAHVLAIKDMAGLLRPPAAQRLVSALRSRFDLPVHLHTHDTPGGQLASYVAAWHAGADAVDGAAAPLAGTTSQPALSSIVAAAAHTEYDTGLSLSAVCALEPYWEALRKVYAPFESGLPGPTGRVYHHEIPGGQLSNLRQQAIALGLGDRFEEIEEAYAGADRVLGRLVKVTPTSKVVGDLALALVGAGVSADEFASDPARFGIPESVLGFLRGELGDPPGGWPEPLRTAALAGRGAARPTAQLAADDEIALSSVGAKRQATLNRLLFPSPTKEFNEHREAYGDTSQLSANQFFYGLRQGEEHRVKLERGVELLIGLEAISEPDERGMRTVMCILNGQLRPVLVRDRSIASAVPAAEKADRGNPGHIAAPFAGVVTVGVCVGERVGAGQTIATIEAMKMEAPITAPVAGTVERVAVSDTAQVEGGDLLVVVS
In the case of B1, the Michaelis constant (Km) came out at 2310 µM.

The record behind these values is paper doi:10.1101/2025.11.11.687647v1.
